In patent publication US20220054583A1 (ANBITION S R L, published 2022):
Each block holds one binder with its values, some of them ahead of it. Square brackets hold non-standard residues; d marks the D form. Ends that are not written are not given here. * marks the point of attachment. Met(O2) = CS(=O)(=O)CC[C@H](N)C(=O)O; Cha = N[C@@H](CC1CCCCC1)C(=O)O; Bn = c1ccc(C*)cc1

Tests used:
[1] = molecular target: T1, human recombinant receptor VEGFR-1, seven extracellular domains fused to the Fc domain of human IgG (R&D Systems, cat No 321-FL) (human), P17948; experiment: competition ELISA, residual binding of VEGF-A (5 ng/ml) to coated VEGFR-1-Fc, peptide 50000 nM
T1 chain: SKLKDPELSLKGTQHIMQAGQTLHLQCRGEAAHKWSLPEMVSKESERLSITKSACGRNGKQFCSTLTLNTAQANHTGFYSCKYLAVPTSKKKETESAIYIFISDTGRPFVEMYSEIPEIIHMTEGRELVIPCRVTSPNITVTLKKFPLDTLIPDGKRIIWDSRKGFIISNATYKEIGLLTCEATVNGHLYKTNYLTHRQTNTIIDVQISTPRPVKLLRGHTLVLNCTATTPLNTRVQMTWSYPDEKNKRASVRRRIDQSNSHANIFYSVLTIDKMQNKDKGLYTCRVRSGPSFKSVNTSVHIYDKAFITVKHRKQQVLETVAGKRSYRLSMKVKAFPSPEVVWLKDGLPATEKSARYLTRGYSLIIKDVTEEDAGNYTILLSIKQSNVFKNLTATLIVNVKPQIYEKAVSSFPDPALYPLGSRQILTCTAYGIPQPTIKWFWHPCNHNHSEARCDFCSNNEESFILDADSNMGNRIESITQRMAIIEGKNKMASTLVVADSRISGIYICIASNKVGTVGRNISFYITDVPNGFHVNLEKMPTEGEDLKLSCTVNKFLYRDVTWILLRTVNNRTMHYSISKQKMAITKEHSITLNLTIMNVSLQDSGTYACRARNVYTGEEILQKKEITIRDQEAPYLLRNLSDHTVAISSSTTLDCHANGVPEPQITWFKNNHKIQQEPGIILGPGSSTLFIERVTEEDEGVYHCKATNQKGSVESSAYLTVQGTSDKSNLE

[2] = molecular target: T1, human recombinant receptor VEGFR-1, …; experiment: competition ELISA, residual binding of VEGF-A (5 ng/ml) to coated VEGFR-1-Fc, peptide 12500 nM
[3] = molecular target: T1, human recombinant receptor VEGFR-1, …; experiment: competition ELISA, residual binding of VEGF-A (5 ng/ml) to coated VEGFR-1-Fc, peptide 6250 nM
[4] = molecular target: T1, human recombinant receptor VEGFR-1, …; experiment: competition ELISA, residual binding of PlGF (5 ng/ml) to coated VEGFR-1-Fc, peptide 780 nM
[5] = molecular target: T1, human recombinant receptor VEGFR-1, …; experiment: competition ELISA, PlGF binding to coated VEGFR-1-Fc
[6] = molecular target: T1, human recombinant receptor VEGFR-1, …; experiment: competition ELISA, residual binding of PlGF (5 ng/ml) to coated VEGFR-1-Fc, peptide 50000 nM
[7] = molecular target: T1, human recombinant receptor VEGFR-1, …; experiment: competition ELISA, residual binding of VEGF-A (5 ng/ml) to coated VEGFR-1-Fc, peptide 25000 nM
[8] = molecular target: T1, human recombinant receptor VEGFR-1, …; experiment: competition ELISA, residual binding of VEGF-A (5 ng/ml) to coated VEGFR-1-Fc, peptide 3125 nM
[9] = molecular target: T1, human recombinant receptor VEGFR-1, …; experiment: competition ELISA, residual binding of PlGF (5 ng/ml) to coated VEGFR-1-Fc, peptide 1560 nM
[10] = molecular target: T1, human recombinant receptor VEGFR-1, …; experiment: competition ELISA, residual binding of PlGF (5 ng/ml) to coated VEGFR-1-Fc, peptide 12500 nM
[11] = molecular target: T1, human recombinant receptor VEGFR-1, …; experiment: competition ELISA, residual binding of PlGF (5 ng/ml) to coated VEGFR-1-Fc, peptide 3125 nM
[12] = molecular target: T1, human recombinant receptor VEGFR-1, …; experiment: competition ELISA, residual binding of VEGF-A (5 ng/ml) to coated VEGFR-1-Fc, peptide 780 nM
[13] = molecular target: T1, human recombinant receptor VEGFR-1, …; experiment: competition ELISA, residual binding of PlGF (5 ng/ml) to coated VEGFR-1-Fc, peptide 25000 nM
[14] = molecular target: T1, human recombinant receptor VEGFR-1, …; experiment: competition ELISA, residual binding of VEGF-A (5 ng/ml) to coated VEGFR-1-Fc, peptide 1560 nM
[15] = molecular target: T1, human recombinant receptor VEGFR-1, …; experiment: competition ELISA, VEGF-A binding to coated VEGFR-1-Fc
[16] = molecular target: T1, human recombinant receptor VEGFR-1, …; experiment: competition ELISA, residual binding of PlGF (5 ng/ml) to coated VEGFR-1-Fc, peptide 6250 nM
[17] = molecular target: T1, human recombinant receptor VEGFR-1, …; experiment: competition ELISA, PlGF or VEGF-A binding to coated VEGFR-1-Fc; reference iVR1
[18] = molecular target: T2, human recombinant receptor VEGFR-1, seven extracellular domains fused to the Fc domain of human IgG (R&D … (human, UniProt P17948 27-758)); experiment: competition ELISA, VEGF-A binding to coated VEGFR-1-Fc
T2 construct: Bought reagent; also called Flt-1; not shown: Fc domain of human IgG

binding % [1]: 8.6%
binding % [2]: 37%
binding % [3]: 66%
binding % [4]: 99.4%
IC50 [5]: 10000 nM
binding % [6]: 26.3%
binding % [7]: 21.4%
binding % [8]: 93.9%
binding % [9]: 101%
binding % [10]: 44.6%
binding % [11]: 96.1%
binding % [12]: 98.4%
binding % [13]: 36%
binding % [14]: 96.2%
IC50 [15]: 10000 nM
binding % [16]: 68.5%
B1: iVR1, tetrameric peptide of formula (IIc) (peptide)
peptide: H-[dE]-Cys(Bn)-[Cha]
chain 1: Lys
chain 2: Lys-Gly-NH2
modifications: also: branched: four ECX arms on two Z1 Lys, both on Z2 Lys

binding % [1]: 6.5%
binding % [2]: 9.81%
binding % [3]: 12.5%
binding % [4]: 83.8%
IC50 [5]: < 1000 nM
binding % [6]: 9.18%
binding % [7]: 7.99%
binding % [8]: 21.7%
binding % [9]: 35.5%
binding % [10]: 12.6%
fold inhibitory capacity against iVR1 [17]: 10 fold
binding % [11]: 25.5%
binding % [12]: 92.3%
binding % [13]: 10.3%
binding % [14]: 43.7%
IC50 [15]: 1000 nM
binding % [16]: 14.1%
B2: iVR1-Cys, tetrameric peptide of formula (IIb) (peptide)
peptide: H-[dE]-Cys(Bn)-[Cha]
chain 1: Lys
chain 2: Lys-[dC]-NH2
modifications: also: branched: four ECX arms on two Z1 Lys, both on Z2 Lys

The remaining lines, values behind:

B3: tetrameric peptide of formula (II) with Y2 = L-methionine sulfone (peptide)
peptide: [dE]-Cys(Bn)-[Cha]
chain 1: Lys
chain 2: Lys-[Met(O2)]
modifications: also: tetrameric: four tripeptide arms on two Z1 lysines, carried on Z2 lysine
notes: Variant of iVR1-Cys with another Y2; only Y2 is printed
IC50 [18]: 4620 nM

B4: tetrameric peptide of formula (II) with Y2 = D-serine (peptide)
peptide: [dE]-Cys(Bn)-[Cha]
chain 1: Lys
chain 2: Lys-[dS]
modifications: also: tetrameric: four tripeptide arms on two Z1 lysines, carried on Z2 lysine
notes: as for B3
IC50 [18]: 2430 nM

B5: tetrameric peptide of formula (II) with Y2 = L-cysteine (peptide)
peptide: [dE]-Cys(Bn)-[Cha]
chain 1: Lys
chain 2: Lys-Cys
modifications: also: tetrameric: four tripeptide arms on two Z1 lysines, carried on Z2 lysine
notes: Variant of iVR1-Cys with another Y2
IC50 [18]: 2030 nM
